Experimental data as given in article PMC9602545, “TcMYB8, a R3-MYB Transcription Factor, Positively Regulates Pyrethrin Biosynthesis in Tanacetum cinerariifolium”.

B1: Probe_proCHS (dsDNA)
DNA 1: TTTGAAGGCAAGTGATGTAAAGTGCTAAGTGTTAAGTCAATGATTATAT
DNA 2: ATATAATCATTGACTTAACACTTAGCACTTTACATCACTTGCCTTCAAA
B2: Probe_proGLIP (dsDNA)
DNA 1: CCTGACAGTTGCTATTTAGTGCTGTCTACTTGTTTAGTTGTGGAGCAAATGACT
DNA 2: AGTCATTTGCTCCACAACTAAACAAGTAGACAGCACTAAATAGCAACTGTCAGG

Molecular target: TcMYB8 (Tanacetum cinerariifolium (clone W99), UniProt A0A9Y1M041 1-217)
Sequence (A0A9Y1M041 entry or part of it): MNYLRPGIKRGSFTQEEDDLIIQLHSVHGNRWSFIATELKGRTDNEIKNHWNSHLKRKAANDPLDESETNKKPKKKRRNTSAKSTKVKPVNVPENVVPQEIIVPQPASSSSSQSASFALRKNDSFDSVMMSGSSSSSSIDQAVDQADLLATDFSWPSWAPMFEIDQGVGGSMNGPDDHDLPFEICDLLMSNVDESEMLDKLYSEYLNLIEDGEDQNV
Assay: EMSA; labeled probe 10 uM; EMSA with 10 uM FAM probe; buffer, salt, pH and temperature not stated
Details: protein: recombinant; tags: 6xHN, C-terminal (pET6HN-C vector); label: 5' 6-FAM; blunt

Binder	binding result
B1	binds
B2	binds
